Data taken from article PMC3778016, “Tracking of Chromosome and Replisome Dynamics in Myxococcus xanthus Reveals a Novel Chromosome Arrangement”.

Experiments:
His6-ParB [1] = target: T1, His6-ParB (Myxococcus xanthus DK1622, UniProt Q1CVJ4 1-296); test: EMSA; 100 nM DNA, 0.1-6 uM His6-ParB, 5 uM pBluescript II SK- competitor, 5 mM Mg2+; 38 mM Hepes/NaOH pH 7.2, 38 mM NaCl, 5 mM MgCl2, 7% glycerol, 1 mM beta-mercaptoethanol, 20 min at 30 C; 6% PAGE at 4 C in 1xTBE + 5 mM MgCl2; details: protein: recombinant; tags: N-terminal His6 (pET45b+); chain copies: 2; blunt
T1 sequence: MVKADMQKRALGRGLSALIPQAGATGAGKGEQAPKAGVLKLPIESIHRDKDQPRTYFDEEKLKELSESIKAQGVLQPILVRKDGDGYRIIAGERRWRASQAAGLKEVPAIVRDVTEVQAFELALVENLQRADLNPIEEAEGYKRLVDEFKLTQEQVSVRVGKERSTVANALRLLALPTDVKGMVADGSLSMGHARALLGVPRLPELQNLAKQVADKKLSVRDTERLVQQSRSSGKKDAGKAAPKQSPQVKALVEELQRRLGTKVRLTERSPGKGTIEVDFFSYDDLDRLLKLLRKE

His6-ParB [2] = target: T1, His6-ParB; test: as above; details: protein: recombinant; tags: N-terminal His6 (pET45b+); chain copies: 2; blunt; remark: listed apart in the source

B1: HEX-parSmut (dsDNA)
DNA 1: GAGGCTTGCCCCACGTGGAACGTCGG
DNA 2: CCGACGTTCCACGTGGGGCAAGCCTC
For B1, the binding signal (His6-ParB [1]) was ~10 fold reduced affinity vs N1.

B2: HEX-parS consensus (dsDNA)
DNA 1: GAGGCTTGTTCCACGTGGAACGTCGG
DNA 2: CCGACGTTCCACGTGGAACAAGCCTC
B2: binds (His6-ParB [2]).
